Assay results reported in article doi:10.1101/2022.04.05.486672.

Tests used:
[1] = target: SIRK1-ECD together with co-receptor QSK1-ECD (about 20 nM each) (Arabidopsis); assay: MST
[2] = target: SIRK1-ECD-HA-StrepII (extracellular domain of SIRK1) (Arabidopsis); assay: MST

- Kd [1]: 57 nM
- Kd [2]: 1440 nM
Binder: VSGNVAARKGKQQTSSGKGGGTN [PEP7 (Elicitor Peptide 7), synthetic, untagged]
